Data taken from patent publication US11008403 (dated 2021).
Where two headings read alike, the source gives them in different places.

T1: cyno TfR ECD (cynomolgus)
T1 chain: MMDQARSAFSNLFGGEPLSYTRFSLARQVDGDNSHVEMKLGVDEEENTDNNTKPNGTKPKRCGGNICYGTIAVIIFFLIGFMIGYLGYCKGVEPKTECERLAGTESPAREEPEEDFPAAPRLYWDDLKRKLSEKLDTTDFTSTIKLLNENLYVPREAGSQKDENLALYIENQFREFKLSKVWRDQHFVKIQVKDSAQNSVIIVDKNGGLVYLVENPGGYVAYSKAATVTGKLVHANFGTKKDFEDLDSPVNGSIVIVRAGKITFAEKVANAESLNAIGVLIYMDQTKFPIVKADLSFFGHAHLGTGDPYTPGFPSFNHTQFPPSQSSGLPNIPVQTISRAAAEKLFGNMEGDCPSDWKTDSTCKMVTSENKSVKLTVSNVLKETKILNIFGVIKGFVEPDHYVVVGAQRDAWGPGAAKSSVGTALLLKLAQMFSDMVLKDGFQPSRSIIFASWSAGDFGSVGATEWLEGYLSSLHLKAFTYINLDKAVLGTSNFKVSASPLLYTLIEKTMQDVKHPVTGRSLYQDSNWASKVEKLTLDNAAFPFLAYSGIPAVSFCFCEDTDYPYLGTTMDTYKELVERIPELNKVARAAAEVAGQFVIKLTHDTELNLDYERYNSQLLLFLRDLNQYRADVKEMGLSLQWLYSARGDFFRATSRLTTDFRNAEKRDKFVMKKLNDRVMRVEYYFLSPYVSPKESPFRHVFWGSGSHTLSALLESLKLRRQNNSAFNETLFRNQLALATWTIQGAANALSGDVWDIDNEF

T2: cyno FcRn (cynomolgus, UniProt Q8SPV9)
T2 chain 1: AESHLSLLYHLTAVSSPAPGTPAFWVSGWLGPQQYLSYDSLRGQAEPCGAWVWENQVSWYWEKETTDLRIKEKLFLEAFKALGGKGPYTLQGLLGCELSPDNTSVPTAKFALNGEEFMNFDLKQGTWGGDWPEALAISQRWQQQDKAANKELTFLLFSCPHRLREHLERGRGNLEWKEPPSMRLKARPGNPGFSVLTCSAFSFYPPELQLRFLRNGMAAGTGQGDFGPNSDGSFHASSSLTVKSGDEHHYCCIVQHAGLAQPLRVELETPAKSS
T2 chain 2: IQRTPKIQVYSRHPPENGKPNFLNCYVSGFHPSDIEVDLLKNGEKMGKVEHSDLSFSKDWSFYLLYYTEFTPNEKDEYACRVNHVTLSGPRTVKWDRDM

B1: Hu15G11.HC34A Fab (antibody, V domains shown)
VH: EVQLVQSGAEVKKPGASVKVSCKASGYTFTSYWAHWVRQAPGQRLEWIGEINPTNGRTNYIEKFKSRATLTVDKSASTAYMELSSLRSEDTAVYYCARGTRAYHYWGQGTMVTVSS
VL: DIQMTQSPSSLSASVGDRVTITCRASDNLYSNLAWYQQKPGKSPKLLVYDATNLADGVPSRFSGSGSGTDYTLTISSLQPEDFATYYCQHFWGTPLTFGQGTKVEIK
B2: Hu15G11.HC51A Fab (antibody, V domains shown)
VH: EVQLVQSGAEVKKPGASVKVSCKASGYTFTSYWMHWVRQAPGQRLEWIGEANPTNGRTNYIEKFKSRATLTVDKSASTAYMELSSLRSEDTAVYYCARGTRAYHYWGQGTMVTVSS
VL: DIQMTQSPSSLSASVGDRVTITCRASDNLYSNLAWYQQKPGKSPKLLVYDATNLADGVPSRFSGSGSGTDYTLTISSLQPEDFATYYCQHFWGTPLTFGQGTKVEIK
B3: antiTfR.52A.M108L.Fab (antibody, V domains shown)
VH: EVQLVQSGAEVKKPGASVKVSCKASGYTFTSYWMHWVRQAPGQRLEWIGEIAPTNGRTNYIEKFKSRATLTVDKSASTAYMELSSLRSEDTAVYYCARGTRAYHYWGQGTLVTVSS
VL: DIQMTQSPSSLSASVGDRVTITCRASDNLYSNLAWYQQKPGKSPKLLVYDATNLADGVPSRFSGSGSGTDYTLTISSLQPEDFATYYCQHFWGTPLTFGQGTKVEIK
B4: Anti-TfR2/6266.hIgG1.LALAPG.YTE (antibody)
chain 1: EVQLVQSGAEVKKPGASVKVSCKASGYTFTSYWMHWVRQAPGQRLEWIGEINPTNGRTNYIEKFKSRATLTVDKSASTAYMELSSLRSEDTAVYYCARGTRAYHYWGQGTMVTVSSASTKGPSVFPLAPSSKSTSGGTAALGCLVKDYFPEPVTVSWNSGALTSGVHTFPAVLQSSGLYSLSSVVTVPSSSLGTQTYICNVNHKPSNTKVDKKVEPKSCDKTHTCPPCPAPEAAGGPSVFLFPPKPKDTLYITREPEVTCVVVDVSHEDPEVKFNWYVDGVEVHNAKTKPREEQYNSTYRVVSVLTVLHQDWLNGKEYKCKVSNKALGAPIEKTISKAKGQPREPQVYTLPPSREEMTKNQVSLSCAVKGFYPSDIAVEWESNGQPENNYKTTPPVLDSDGSFFLVSKLTVDKSRWQQGNVFSCSVMHEALHNHYTQKSLSLSPGK
chain 2: DIQMTQSPSSLSASVGDRVTITCRASDNLYSNLAWYQQKPGKSPKLLVYDATNLADGVPSRFSGSGSGTDYTLTISSLQPEDFATYYCQHFAGTPLTFGQGTKVEIKRTVAAPSVFIFPPSDEQLKSGTASVVCLLNNFYPREAKVQWKVDNALQSGNSQESVTEQDSKDSTYSLSSTLTLSKADYEKHKVYACEVTHQGLSSPVTKSFNRGEC
chain 3: not shown
chain 4: not shown
B5: Anti-TfR.52A/6266.hIgG1.LALAPG (antibody)
chain 1: EVQLVQSGAEVKKPGASVKVSCKASGYTFTSYWMHWVRQAPGQRLEWIGEIAPTNGRTNYIEKFKSRATLTVDKSASTAYMELSSLRSEDTAVYYCARGTRAYHYWGQGTMVTVSSASTKGPSVFPLAPSSKSTSGGTAALGCLVKDYFPEPVTVSWNSGALTSGVHTFPAVLQSSGLYSLSSVVTVPSSSLGTQTYICNVNHKPSNTKVDKKVEPKSCDKTHTCPPCPAPEAAGGPSVFLFPPKPKDTLMISRTPEVTCVVVDVSHEDPEVKFNWYVDGVEVHNAKTKPREEQYNSTYRVVSVLTVLHQDWLNGKEYKCKVSNKALGAPIEKTISKAKGQPREPQVYTLPPSREEMTKNQVSLSCAVKGFYPSDIAVEWESNGQPENNYKTTPPVLDSDGSFFLVSKLTVDKSRWQQGNVFSCSVMHEALHNHYTQKSLSLSPGK
chain 2: DIQMTQSPSSLSASVGDRVTITCRASDNLYSNLAWYQQKPGKSPKLLVYDATNLADGVPSRFSGSGSGTDYTLTISSLQPEDFATYYCQHFWGTPLTFGQGTKVEIKRTVAAPSVFIFPPSDEQLKSGTASVVCLLNNFYPREAKVQWKVDNALQSGNSQESVTEQDSKDSTYSLSSTLTLSKADYEKHKVYACEVTHQGLSSPVTKSFNRGEC
chain 3: not shown
chain 4: not shown
B6: Anti-TfR.52A/6266.hIgG1.LALAPG.YTE (antibody)
chain 1: EVQLVQSGAEVKKPGASVKVSCKASGYTFTSYWMHWVRQAPGQRLEWIGEIAPTNGRTNYIEKFKSRATLTVDKSASTAYMELSSLRSEDTAVYYCARGTRAYHYWGQGTMVTVSSASTKGPSVFPLAPSSKSTSGGTAALGCLVKDYFPEPVTVSWNSGALTSGVHTFPAVLQSSGLYSLSSVVTVPSSSLGTQTYICNVNHKPSNTKVDKKVEPKSCDKTHTCPPCPAPEAAGGPSVFLFPPKPKDTLYITREPEVTCVVVDVSHEDPEVKFNWYVDGVEVHNAKTKPREEQYNSTYRVVSVLTVLHQDWLNGKEYKCKVSNKALGAPIEKTISKAKGQPREPQVYTLPPSREEMTKNQVSLSCAVKGFYPSDIAVEWESNGQPENNYKTTPPVLDSDGSFFLVSKLTVDKSRWQQGNVFSCSVMHEALHNHYTQKSLSLSPGK
chain 2: DIQMTQSPSSLSASVGDRVTITCRASDNLYSNLAWYQQKPGKSPKLLVYDATNLADGVPSRFSGSGSGTDYTLTISSLQPEDFATYYCQHFWGTPLTFGQGTKVEIKRTVAAPSVFIFPPSDEQLKSGTASVVCLLNNFYPREAKVQWKVDNALQSGNSQESVTEQDSKDSTYSLSSTLTLSKADYEKHKVYACEVTHQGLSSPVTKSFNRGEC
chain 3: not shown
chain 4: not shown
B7: Hu15G11.HC53A Fab (antibody, V domains shown)
VH: EVQLVQSGAEVKKPGASVKVSCKASGYTFTSYWMHWVRQAPGQRLEWIGEINPANGRTNYIEKFKSRATLTVDKSASTAYMELSSLRSEDTAVYYCARGTRAYHYWGQGTMVTVSS
VL: DIQMTQSPSSLSASVGDRVTITCRASDNLYSNLAWYQQKPGKSPKLLVYDATNLADGVPSRFSGSGSGTDYTLTISSLQPEDFATYYCQHFWGTPLTFGQGTKVEIK
B8: Anti-TfR2/6266.hIgG1.LALAPG (antibody)
chain 1: EVQLVQSGAEVKKPGASVKVSCKASGYTFTSYWMHWVRQAPGQRLEWIGEINPTNGRTNYIEKFKSRATLTVDKSASTAYMELSSLRSEDTAVYYCARGTRAYHYWGQGTMVTVSSASTKGPSVFPLAPSSKSTSGGTAALGCLVKDYFPEPVTVSWNSGALTSGVHTFPAVLQSSGLYSLSSVVTVPSSSLGTQTYICNVNHKPSNTKVDKKVEPKSCDKTHTCPPCPAPEAAGGPSVFLFPPKPKDTLMISRTPEVTCVVVDVSHEDPEVKFNWYVDGVEVHNAKTKPREEQYNSTYRVVSVLTVLHQDWLNGKEYKCKVSNKALGAPIEKTISKAKGQPREPQVYTLPPSREEMTKNQVSLSCAVKGFYPSDIAVEWESNGQPENNYKTTPPVLDSDGSFFLVSKLTVDKSRWQQGNVFSCSVMHEALHNHYTQKSLSLSPGK
chain 2: DIQMTQSPSSLSASVGDRVTITCRASDNLYSNLAWYQQKPGKSPKLLVYDATNLADGVPSRFSGSGSGTDYTLTISSLQPEDFATYYCQHFAGTPLTFGQGTKVEIKRTVAAPSVFIFPPSDEQLKSGTASVVCLLNNFYPREAKVQWKVDNALQSGNSQESVTEQDSKDSTYSLSSTLTLSKADYEKHKVYACEVTHQGLSSPVTKSFNRGEC
chain 3: not shown
chain 4: not shown
B9: Hu7G7.v1 Fab (antibody, V domains shown)
VH: EVQLVQSGAEVKKPGASVKVSCKASGYTFTSYWMHWVRQAPGQGLEWIGNIYPGSGSTKYDERFKSRVTITVDTSTSTAYLELSSLRSEDTAVYYCTRGGYDSRAWFAYWGQGTLVTVSS
VL: DIVMTQSPDSLAVSLGERATINCRARQSVSTSSYSFMHWYQQPAGQPPKLLIKYASIQESGVPDRFSGSGSGTDFTLTISSLQAEDVAVYYCQHTWEIPFTFGQGTKVEIK
B10: Hu7A4.v15 Fab (antibody, V domains shown)
VH: EVQLVQSGAEVKKPGASVKVSCKGSGYTFTDYAMHWVRQAPGQGLEWMGGISTYFGRTNYNQKFKGRVTMTVDTSISTAYMELSRLRSDDTAVYYCARGLSGNYVMDYWGQGTTVTVSS
VL: DIVMTQSPDSLAVSLGERATINCRASESVDSYGNSFMHWYQQKPGQPPKLLIYRASNLESGVPDRFSGSGSRTDFTLTISSLQAEDVAVYYCQQSNEAPPTFGQGTKLEIK
B11: Hu15G11.HC32A Fab (antibody, V domains shown)
VH: EVQLVQSGAEVKKPGASVKVSCKASGYTFTSAWMHWVRQAPGQRLEWIGEINPTNGRTNYIEKFKSRATLTVDKSASTAYMELSSLRSEDTAVYYCARGTRAYHYWGQGTMVTVSS
VL: DIQMTQSPSSLSASVGDRVTITCRASDNLYSNLAWYQQKPGKSPKLLVYDATNLADGVPSRFSGSGSGTDYTLTISSLQPEDFATYYCQHFWGTPLTFGQGTKVEIK

Tests used:
cyno TfR ECD [1] = molecular target: T1, cyno TfR ECD; experiment: SPR
human TfR ECD [2] = molecular target: human TfR ECD (human); experiment: SPR
Target sequence in this assay (chain, as listed by the source): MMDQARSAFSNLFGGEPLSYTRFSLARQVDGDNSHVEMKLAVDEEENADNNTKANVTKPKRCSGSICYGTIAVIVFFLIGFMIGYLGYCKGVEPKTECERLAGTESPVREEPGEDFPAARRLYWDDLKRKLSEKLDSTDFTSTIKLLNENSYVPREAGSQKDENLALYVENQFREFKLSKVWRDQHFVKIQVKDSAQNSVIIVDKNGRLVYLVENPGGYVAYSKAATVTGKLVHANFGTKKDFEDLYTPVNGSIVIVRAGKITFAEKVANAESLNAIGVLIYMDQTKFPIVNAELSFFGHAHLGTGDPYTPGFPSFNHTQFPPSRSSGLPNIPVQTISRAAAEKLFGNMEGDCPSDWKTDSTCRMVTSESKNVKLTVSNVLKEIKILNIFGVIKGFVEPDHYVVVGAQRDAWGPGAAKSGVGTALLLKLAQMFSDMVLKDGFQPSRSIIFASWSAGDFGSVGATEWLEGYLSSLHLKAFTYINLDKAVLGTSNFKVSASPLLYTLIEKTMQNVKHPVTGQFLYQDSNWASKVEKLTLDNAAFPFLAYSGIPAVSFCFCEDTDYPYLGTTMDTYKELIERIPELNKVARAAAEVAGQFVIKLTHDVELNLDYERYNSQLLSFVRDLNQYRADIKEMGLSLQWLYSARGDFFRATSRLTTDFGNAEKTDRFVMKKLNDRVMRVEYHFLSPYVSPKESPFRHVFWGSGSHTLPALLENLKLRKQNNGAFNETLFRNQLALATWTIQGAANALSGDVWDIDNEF

human TfR ECD [3] = molecular target: human TfR ECD (human); experiment: SPR; remark: listed apart in the source
cyno FcRn = molecular target: T2, cyno FcRn; experiment: SPR, pH 6.0
human FcRn = human FcRn (human, UniProt P55899); experiment: SPR, pH 6.0
cyno TfR ECD [4] = molecular target: T1, cyno TfR ECD; experiment: SPR
human TfR ECD [5] = molecular target: human TfR ECD (human); experiment: SPR; remark: listed apart in the source
Target sequence in this assay (chain, as listed by the source): as above

Binder	Kd (human TfR ECD [2])	Kd (cyno FcRn)	Kd (human FcRn)	other results
B1	7.14 nM			Kd (cyno TfR ECD [1]): 32.6 nM
B2	23.9 nM			Kd (cyno TfR ECD [1]): 105 nM
B3				Kd (human TfR ECD [3]): 72.2 nM
B4		200 nM	300 nM	
B5		1200 nM	800 nM	
B6		200 nM	200 nM	
B7	12.9 nM			Kd (cyno TfR ECD [1]): 51.8 nM
B8		1200 nM	1100 nM	
B9				Kd (cyno TfR ECD [4]): 188 nM; Kd (human TfR ECD [5]): 45.8 nM
B10				Kd (cyno TfR ECD [4]): 4.28 nM; Kd (human TfR ECD [5]): 0.348 nM
B11	7.47 nM			
